Measured values published in patent publication US8974802B2, “Medicament for the treatment of cancer of the pancreas” (Erytech Pharma, priority 2007, dated 2015).

Assays:
[1] = system: Mia PaCa-2 human pancreatic tumour cells; test: Growth inhibition of human pancreatic tumours (Mia PaCa-2) in nude mice; type: in vivo; conditions: after 57 days, L-Aspa RBC single 200 IU/kg i.v., gemcitabine 4 x 60 mg/kg i.v.
From the text: The purpose of this experiment is to inject L-Aspa RBC into mice bearing human pancreatic tumours and to observe a tumour growth inhibition. A cell line sensitive to L-asparaginase in vitro, and deficient in L-asparagine synthase, was selected: Mia PaCa-2. To study the tumour growth inhibition after the injection of L-Aspa RBC, an in vivo protocol was set up with 4 groups of 12 mice. A reference treatment for cancer of the pancreas, gemcitabine, is included in the protocol. Human pancreatic tumour cells (Mia PaCa-2) in exponential growth phase (origin ATCC: American Type Culture Collection) were subjected to tryptic digestion, then counted and washed before finally being resuspended in a DMEM serum-free medium in order for them to be injected subcutaneously into 48 athymic nude/nude mice. The 48 athymic nude/nude (nude balb/c) mice, aged 5-6 weeks and between 18 and 22 g in weight, were supplied by Harlan (France). The animals were kept for 7 days in a specialized SPF (specific-pathogen-free) unit before the treatment. The 48 mice were divided randomly into 4 groups of 12 mice. […]

[2] = system: MIA Paca-2 cells; conditions: nude mice; PEG-asparaginase 12.5 or 25 IU/g per day i/p for 14 days; gemcitabine 80 mg/kg i/p days 1, 4, 7, 10; cited from earlier work
[3] = system: MIA Paca-2 cells; conditions: PEG-asparaginase 0.8 kIU/kg; gemcitabine 80 mg/kg; mice; cited from earlier work
[4] = system: PANC-1 human pancreatic tumor (clone no. 6sC); test: In vivo anti-tumoral study in mice bearing pancreatic tumor PANC-1; conditions: day 43, L-aspa RBC single 200 IU/kg i.v., gemcitabine 4 x 80 mg/kg i.v.
From the text: The objective of this study was to assess the antitumoral effects of L-asparaginase encapsulated in red blood cells (L-aspa RBC) administered in a human pancreatic tumor (PANC-1) xenograft model.
In this study, 4 groups of 15 mice received either L-asparaginase encapsulated in red blood cells, gemcitabine (reference treatment in pancreatic cancer), a combination of both agents or control item. A last group of 10 mice received no treatment and was used as control group.
A Log-growing culture of human pancreatic tumor cells, PANC-1 (obtained from ECCAC, UK), was subcloned and the clone no.
Clone no 6sC was trypsinized, counted, washed and resuspended in serum-free DMEM medium for sub-cutaneous injection to 100 nu/nu athymic mice.
Hundred athymic Nude mice of 5 week-old, weighing 20 g+/−3 g were supplied by Harlan France. […]
Four days after cell implantation, tumor volumes were measured and ranked according to size and median was calculated. […]
Tumor measurements were recorded 3 times a week (on Mondays, Wednesday and Friday) during 43 days.
The relative tumor volume is calculated by dividing the tumor volume at a given day by the tumor volume before treatment avoiding the bias due to statistical difference in tumor volume between groups on the day of injection.

[5] = direct injection; cited from earlier work
[6] = system: human pulmonary and melanoma cells; conditions: Yunis et al. 1977; cited from earlier work
[7] = system: PANC-1 cells; conditions: cited from earlier work
[8] = system: pancreatic carcinoma; conditions: cited from earlier work
[9] = system: MIA Paca-2 cells; conditions: cited from earlier work
[10] = system: solid tumor; conditions: trial suspended; cited from earlier work
[11] = system: PANC 10.05; conditions: AACR 2006; cited from earlier work
[12] = system: AsPC-1; conditions: AACR 2006; cited from earlier work
[13] = system: CFPAC-2; conditions: AACR 2006; cited from earlier work
[14] = system: BxPC-3 cells; conditions: 10 IU/ml; Denis et al. 1999; cited from earlier work

For Nc1ccn([C@@H]2O[C@H](CO)[C@@H](O)C2(F)F)c(=O)n1 [gemcitabine], the tumour volume [1] is listed as 1353±1016 mm^3, the “cell growth inhibition in vivo” value [2] is listed as 63.5% and the “decrease of tumour volume” value [3] is listed as 29%. The “mouse survival (mice remaining / still alive)” value [4] was 20% and the relative tumor volume ([4]; tumor volume divided by volume before treatment) was 51.8±17.1.

B1: asparaginase (protein, UniProt P00805 23-348, looked up)
L-asparaginase 2: LPNITILATGGTIAGGGDSATKSNYTVGKVGVENLVNAVPQLKDIANVKGEQVVNIGSQDMNDNVWLTLAKKINTDCDKTDGFVITHGTDTMEETAYFLDLTVKCDKPVVMVGAMRPSTSMSADGPFNLYNAVVTAADKASANRGVLVVMNDTVLDGRDVTKTNTTDVATFKSVNYGPLGYIHNGKIDYQRTPARKHTSDTPFDVSKLNELPKVGIVYNYANASDLPAKALVDAGYDGIVSAGVGNGNLYKSVFDTLATAAKTGTAVVRSSRVPTGATTQDAEVDDAKYGFVASGTLNPQKARVLLQLALTQTKDPQQIQQIFNQY
notes: bacterial enzyme, CAS number 9015-68-3, hydrolyses and depletes asparagine
In the case of B1, the allergic reaction incidence [5] is given as 27%, the effect on growth [6] is given as “no effect” and the “inhibition of cell growth” value ([7]; 0.0025 IU/ml, Wu et al. 1982) is given as “no effect”. For the same molecule, the “effect on cell growth” value ([7]; 1 IU/ml, Yunis et al. 1977) was “has an effect”, the side-effects ([8]; IV 1000 IU/kg/day, ten patients with inoperable pancreatic cancer, treatment stopped early) was “Serious side-effects appeared rapidly” and the clinical response ([8]; two of the patients, Lessner 1977) was “no response”. The “inhibition of cell growth” value ([9]; 0.0025 IU/ml, Wu et al. 1982) was “no effect”, the “effect on the growth of the cells” value ([9]; 0.1 IU/ml, Yunis et al. 1977) was “significant effect on the growth of the cells” and the “effect on cell growth” value ([9]; 0.5 and 1 IU/ml, Yunis et al. 1977) was “total inhibition of cell growth with cell death”.

B2: PEG-asparaginase: pegylated form of asparaginase (Oncaspar, Enzon Pharmaceuticals) (protein, UniProt P00805 23-348, looked up)
L-asparaginase 2: B1 L-asparaginase 2
modifications: PEG
In the case of B2, the clinical trial outcome [10] is given as “toxicity was reached before efficacy”, the “in vitro cytotoxicity (IC50)” value [11] is given as 0.46 IU/ml and the “in vitro cytotoxicity (IC50)” value [12] is given as “greater than 20 IU/ml”. For the same molecule, the “in vitro cytotoxicity (IC50)” value [13] was “greater than 20 IU/ml”, the cell growth inhibition [14] was 51% and the cell growth inhibition ([7]; 1 IU/ml, Denis et al. 1999) was 100%. For the same molecule, the “in vitro cytotoxicity (IC50)” value ([7]; AACR 2006) was 0.27 IU/ml, the IC50 ([7]; Denis et al. 1999) was 0.25 IU/ml and the “cell growth inhibition in vivo” value [2] was 59%. The “decrease of tumour volume” value [3] was 14%, the cell growth inhibition ([9]; 1 IU/ml, Denis et al. 1999) was 61% and the “in vitro cytotoxicity (IC50)” value ([9]; AACR 2006) was 0.66 IU/ml. The IC50 ([9]; Denis et al. 1999) was 0.13 IU/ml.
